Laboratory results reported in patent US20220204580A1 (AstraZeneca / MedImmune, published 2022).
Numbered stars: 1 amine (or outer) side, 2 acyl side, 3 side chain; on linkers, the order of the positions; unused ones are H or OH. Bridge positions count the residues as written; N and C are the ends. Square brackets hold non-standard residues; d marks the D form. Side chains are listed from the residue outwards. Ends that are not written are not given here. * marks the point of attachment. C20 diacid = O=C(O)CCCCCCCCCCCCCCCCCCC(=O)*; C18 diacid = O=C(O)CCCCCCCCCCCCCCCCC(=O)*; γGlu = O=C(O)[C@H](CCC(=O)[*:2])N[*:1]; αMeF = C[C@](N)(Cc1ccccc1)C(=O)O; Aib = CC(C)(N)C(=O)O

B1: Peptide 129 (SEQ ID NO: 129) (peptide)
peptide: K([γGlu-C18 diacid])KCNTATCATQRLANFL[Aib]HSSNNFGPILPPTNVGSNTY-NH2
modifications: disulfide 3-8; N-terminus assumed
SMILES: CC[C@H](C)[C@H](NC(=O)[C@@H]1CCCN1C(=O)CNC(=O)[C@H](Cc1ccccc1)NC(=O)[C@H](CC(N)=O)NC(=O)[C@H](CC(N)=O)NC(=O)[C@H](CO)NC(=O)[C@H](CO)NC(=O)[C@H](Cc1c[nH]cn1)NC(=O)C(C)(C)NC(=O)[C@H](CC(C)C)NC(=O)[C@H](Cc1ccccc1)NC(=O)[C@H](CC(N)=O)NC(=O)[C@H](C)NC(=O)[C@H](CC(C)C)NC(=O)[C@H](CCCNC(=N)N)NC(=O)[C@H](CCC(N)=O)NC(=O)[C@@H](NC(=O)[C@H](C)NC(=O)[C@@H]1CSSC[C@H](NC(=O)[C@H](CCCCN)NC(=O)[C@@H](N)CCCCNC(=O)CC[C@H](NC(=O)CCCCCCCCCCCCCCCCC(=O)O)C(=O)O)C(=O)N[C@@H](CC(N)=O)C(=O)N[C@@H]([C@@H](C)O)C(=O)N[C@@H](C)C(=O)N[C@@H]([C@@H](C)O)C(=O)N1)[C@@H](C)O)C(=O)N[C@@H](CC(C)C)C(=O)N1CCC[C@H]1C(=O)N1CCC[C@H]1C(=O)N[C@H](C(=O)N[C@@H](CC(N)=O)C(=O)N[C@H](C(=O)NCC(=O)N[C@@H](CO)C(=O)N[C@@H](CC(N)=O)C(=O)N[C@H](C(=O)N[C@@H](Cc1ccc(O)cc1)C(N)=O)[C@@H](C)O)C(C)C)[C@@H](C)O
B2: Peptide 140 (SEQ ID NO: 140) (peptide)
peptide: K([γGlu-C18 diacid])KCNTATCATQRLANFL[Aib]HSSNNFGPILPPTEVGSNTY-NH2
modifications: disulfide 3-8; N-terminus assumed
SMILES: CC[C@H](C)[C@H](NC(=O)[C@@H]1CCCN1C(=O)CNC(=O)[C@H](Cc1ccccc1)NC(=O)[C@H](CC(N)=O)NC(=O)[C@H](CC(N)=O)NC(=O)[C@H](CO)NC(=O)[C@H](CO)NC(=O)[C@H](Cc1c[nH]cn1)NC(=O)C(C)(C)NC(=O)[C@H](CC(C)C)NC(=O)[C@H](Cc1ccccc1)NC(=O)[C@H](CC(N)=O)NC(=O)[C@H](C)NC(=O)[C@H](CC(C)C)NC(=O)[C@H](CCCNC(=N)N)NC(=O)[C@H](CCC(N)=O)NC(=O)[C@@H](NC(=O)[C@H](C)NC(=O)[C@@H]1CSSC[C@H](NC(=O)[C@H](CCCCN)NC(=O)[C@@H](N)CCCCNC(=O)CC[C@H](NC(=O)CCCCCCCCCCCCCCCCC(=O)O)C(=O)O)C(=O)N[C@@H](CC(N)=O)C(=O)N[C@@H]([C@@H](C)O)C(=O)N[C@@H](C)C(=O)N[C@@H]([C@@H](C)O)C(=O)N1)[C@@H](C)O)C(=O)N[C@@H](CC(C)C)C(=O)N1CCC[C@H]1C(=O)N1CCC[C@H]1C(=O)N[C@H](C(=O)N[C@@H](CCC(=O)O)C(=O)N[C@H](C(=O)NCC(=O)N[C@@H](CO)C(=O)N[C@@H](CC(N)=O)C(=O)N[C@H](C(=O)N[C@@H](Cc1ccc(O)cc1)C(N)=O)[C@@H](C)O)C(C)C)[C@@H](C)O
B3: Peptide 15 (SEQ ID NO: 15) (peptide)
peptide: K([γGlu-C18 diacid])KCNTATCATQRLANFLRHSSNN[αMeF]GPILPPTEVGSNTY-NH2
modifications: disulfide 3-8; N-terminus assumed
SMILES: CC[C@H](C)[C@H](NC(=O)[C@@H]1CCCN1C(=O)CNC(=O)[C@](C)(Cc1ccccc1)NC(=O)[C@H](CC(N)=O)NC(=O)[C@H](CC(N)=O)NC(=O)[C@H](CO)NC(=O)[C@H](CO)NC(=O)[C@H](Cc1c[nH]cn1)NC(=O)[C@H](CCCNC(=N)N)NC(=O)[C@H](CC(C)C)NC(=O)[C@H](Cc1ccccc1)NC(=O)[C@H](CC(N)=O)NC(=O)[C@H](C)NC(=O)[C@H](CC(C)C)NC(=O)[C@H](CCCNC(=N)N)NC(=O)[C@H](CCC(N)=O)NC(=O)[C@@H](NC(=O)[C@H](C)NC(=O)[C@@H]1CSSC[C@H](NC(=O)[C@H](CCCCN)NC(=O)[C@@H](N)CCCCNC(=O)CC[C@H](NC(=O)CCCCCCCCCCCCCCCCC(=O)O)C(=O)O)C(=O)N[C@@H](CC(N)=O)C(=O)N[C@@H]([C@@H](C)O)C(=O)N[C@@H](C)C(=O)N[C@@H]([C@@H](C)O)C(=O)N1)[C@@H](C)O)C(=O)N[C@@H](CC(C)C)C(=O)N1CCC[C@H]1C(=O)N1CCC[C@H]1C(=O)N[C@H](C(=O)N[C@@H](CCC(=O)O)C(=O)N[C@H](C(=O)NCC(=O)N[C@@H](CO)C(=O)N[C@@H](CC(N)=O)C(=O)N[C@H](C(=O)N[C@@H](Cc1ccc(O)cc1)C(N)=O)[C@@H](C)O)C(C)C)[C@@H](C)O
B4: Peptide 116 (SEQ ID NO: 116) (peptide)
peptide: K([γGlu-γGlu-C20 diacid])CNTATCATQRLAEFLRHSSNNFGPILPPTNVGSNTY-NH2
modifications: disulfide 2-7; N-terminus assumed
SMILES: CC[C@H](C)[C@H](NC(=O)[C@@H]1CCCN1C(=O)CNC(=O)[C@H](Cc1ccccc1)NC(=O)[C@H](CC(N)=O)NC(=O)[C@H](CC(N)=O)NC(=O)[C@H](CO)NC(=O)[C@H](CO)NC(=O)[C@H](Cc1c[nH]cn1)NC(=O)[C@H](CCCNC(=N)N)NC(=O)[C@H](CC(C)C)NC(=O)[C@H](Cc1ccccc1)NC(=O)[C@H](CCC(=O)O)NC(=O)[C@H](C)NC(=O)[C@H](CC(C)C)NC(=O)[C@H](CCCNC(=N)N)NC(=O)[C@H](CCC(N)=O)NC(=O)[C@@H](NC(=O)[C@H](C)NC(=O)[C@@H]1CSSC[C@H](NC(=O)[C@@H](N)CCCCNC(=O)CC[C@H](NC(=O)CC[C@H](NC(=O)CCCCCCCCCCCCCCCCCCC(=O)O)C(=O)O)C(=O)O)C(=O)N[C@@H](CC(N)=O)C(=O)N[C@@H]([C@@H](C)O)C(=O)N[C@@H](C)C(=O)N[C@@H]([C@@H](C)O)C(=O)N1)[C@@H](C)O)C(=O)N[C@@H](CC(C)C)C(=O)N1CCC[C@H]1C(=O)N1CCC[C@H]1C(=O)N[C@H](C(=O)N[C@@H](CC(N)=O)C(=O)N[C@H](C(=O)NCC(=O)N[C@@H](CO)C(=O)N[C@@H](CC(N)=O)C(=O)N[C@H](C(=O)N[C@@H](Cc1ccc(O)cc1)C(N)=O)[C@@H](C)O)C(C)C)[C@@H](C)O

What follows are binders tested against T1, human amylin receptor (calcitonin receptor co-expressed with receptor activity modifying protein, RAMP3) (human, UniProt P30988 25-474; O60896 24-148) (assay: cell-based or functional assay).
T1 sequence (looked up) 1: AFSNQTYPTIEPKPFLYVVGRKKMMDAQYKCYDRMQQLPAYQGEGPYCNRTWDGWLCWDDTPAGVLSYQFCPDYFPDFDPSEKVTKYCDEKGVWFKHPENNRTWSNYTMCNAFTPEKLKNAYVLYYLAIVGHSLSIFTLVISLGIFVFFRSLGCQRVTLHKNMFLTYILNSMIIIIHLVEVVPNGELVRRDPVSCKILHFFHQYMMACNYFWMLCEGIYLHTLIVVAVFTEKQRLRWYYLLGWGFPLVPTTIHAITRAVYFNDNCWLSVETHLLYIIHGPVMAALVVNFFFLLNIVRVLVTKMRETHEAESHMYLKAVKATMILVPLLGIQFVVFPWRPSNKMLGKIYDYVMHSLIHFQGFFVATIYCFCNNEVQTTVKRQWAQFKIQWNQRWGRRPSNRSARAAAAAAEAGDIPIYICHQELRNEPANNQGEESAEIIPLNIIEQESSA
T1 sequence (looked up) 2: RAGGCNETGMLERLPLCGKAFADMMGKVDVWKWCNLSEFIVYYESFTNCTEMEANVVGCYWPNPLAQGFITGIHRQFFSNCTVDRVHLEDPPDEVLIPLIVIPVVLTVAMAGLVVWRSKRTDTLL

| Binder | EC50 (cAMP production) | Ratio (EC50 hCTR / EC50 hAMYR3) |
| --- | --- | --- |
| B1 | 553 pM | 10.4 |
| {C18 diacid}-[γGlu]KCNTATCATQRLANFLVHSSNNFGPILPPTNVGSNTY-NH2 (disulfide 3-8) [Peptide 3 (SEQ ID NO: 3)] | 246 pM | 5 |
| B2 | 656 pM | 9.2 |
| B3 | 522 pM | 10 |
| B4 | 1210 pM | 8 |

Each binder was assayed against T2, human calcitonin receptor (human, UniProt P30988 25-474) (assay: cell-based or functional assay).
T2 sequence (looked up): T1 sequence (looked up) 1

| Binder | EC50 (cAMP production) |
| --- | --- |
| B1 | 5.75 nM |
| {C18 diacid}-[γGlu]KCNTATCATQRLANFLVHSSNNFGPILPPTNVGSNTY-NH2 (disulfide 3-8) [Peptide 3 (SEQ ID NO: 3)] | 1.35 nM |
| B2 | 6.05 nM |
| B3 | 5.46 nM |
| B4 | 9.56 nM |

What follows are binders tested against T3, rat calcitonin receptor (rat, UniProt P32214 25-516) (assay: cell-based or functional assay).
T3 sequence (looked up): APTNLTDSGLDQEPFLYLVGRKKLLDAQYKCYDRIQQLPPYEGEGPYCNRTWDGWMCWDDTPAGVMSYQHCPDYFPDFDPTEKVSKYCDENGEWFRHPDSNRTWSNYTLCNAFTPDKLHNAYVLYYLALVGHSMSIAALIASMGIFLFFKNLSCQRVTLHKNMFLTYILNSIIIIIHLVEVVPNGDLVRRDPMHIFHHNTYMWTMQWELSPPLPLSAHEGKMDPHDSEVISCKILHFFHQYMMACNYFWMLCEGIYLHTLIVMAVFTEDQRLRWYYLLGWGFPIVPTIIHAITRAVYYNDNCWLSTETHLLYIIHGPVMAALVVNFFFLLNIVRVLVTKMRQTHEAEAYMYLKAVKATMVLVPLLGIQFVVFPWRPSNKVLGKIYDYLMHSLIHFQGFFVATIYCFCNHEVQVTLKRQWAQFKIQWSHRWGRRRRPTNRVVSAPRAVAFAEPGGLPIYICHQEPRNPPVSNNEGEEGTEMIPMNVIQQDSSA

| Binder | EC50 (cAMP production) |
| --- | --- |
| B1 | 2870 pM |
| {C18 diacid}-[γGlu]KCNTATCATQRLANFLVHSSNNFGPILPPTNVGSNTY-NH2 (disulfide 3-8) [Peptide 3 (SEQ ID NO: 3)] | 186 pM |
| B2 | 1220 pM |
| B3 | 1820 pM |
| B4 | 9050 pM |

These binders were tested against T4, rat amylin receptor (calcitonin receptor co-expressed with receptor activity modifying protein, RAMP3) (rat, UniProt P32214 25-516; Q9JJ73 23-147) (assay: cell-based or functional assay).
T4 sequence (looked up) 1: T3 sequence (looked up)
T4 sequence (looked up) 2: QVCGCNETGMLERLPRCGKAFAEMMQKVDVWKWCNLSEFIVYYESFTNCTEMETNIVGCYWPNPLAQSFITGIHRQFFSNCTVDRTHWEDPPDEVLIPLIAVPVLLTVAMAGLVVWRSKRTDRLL

| Binder | EC50 (cAMP production) |
| --- | --- |
| B1 | 11.2 pM |
| {C18 diacid}-[γGlu]KCNTATCATQRLANFLVHSSNNFGPILPPTNVGSNTY-NH2 (disulfide 3-8) [Peptide 3 (SEQ ID NO: 3)] | 2.9 pM |
| B2 | 19.5 pM |
| B3 | 10.3 pM |
| B4 | 23.7 pM |
